Molecular target: α-Synuclein (α-Syn), wild type (UniProt P37840)

- percent of the protein as fibrils (day 5): 2%
- percent of the protein as oligomers (day 5): 8%
Substance: α-Synuclein (α-Syn), wild type (from UniProt P37840 1-140) (natural protein)

— article doi:10.1101/619858
